{"source": "patent US20240090511A1", "target": "N. viridula BBMV proteins", "assay": "competition pull-down: biotinylated peptide against ABP5-(AP)5-mCherry on BBMV"}
{"binder": "MDWPRRN (biotinylated (position not given))", "note": "[biotinylated synthetic peptide (ABP5)]", "values": [{"measurement": "competitor peptide concentration at which binding was outcompeted", "value": "> 10", "unit": "µM"}]}
